Laboratory results reported in a protein production outcome set (Wang et al. 2014).

Assay: label from the status in PepcDB records
In the case of “MLVMKCSKCSAEAIYYAKYNGLYLCRDHFNEMIEGRVKKEIRKQVEFHGDDVTISVALSGGKDSSVTLFLLHKILGNRKNMKIKAFTVDEGIDGYRPSGLESAKRLCTSLGIDHETISFYDSYGLTLDSIVKTNPVKIPCAYCGPLRRKLINEMADKQDADYVALGLNLDDYSQSILMNVAKGDFDRFIRMSPQTDRKVGLVRRIAPLRTILEKEVVLYAVTNDIPFDSSWCPYYSRAQRNVFREVVNKLSEENPSTKFAILKFFDRVRENITTGHEEVKLKRCKICGAPTERDVCTACSSLQEVNEMMAEH”, the protein production is reported as “failed”.
For “MLVPLPVREIMRTPVKTISPSAPVIEAAQRLRDEDIGSLVVEDDGSCVGIITESDIVAVTAAEGDTRALSVGDVMAETLVTVAPDADMQAAVDRLQTNNIKKLPVVEDGSLVGIVTTTDLSDYIPHLSRAVRMSNDQSQQKRFTRPDTLYENEDWTFESYGTADGIDVGDHVEFSKTISKADVEAFAEASGDTNRLHLDATFADGTRFGRRIVHGTLVSGIISAALARLPGLTIYLSQELSYQGPVDIDEEVTARCEVVERIQDNRFRLATAVDDSEGNCVIEGDAVVISDPIPDTA”, the protein production was “failed”.
With “MLVRNICKFTQVMGRFRVVVNPRDYCHLAPLKRSRYHQRSEFGCRPLCSNAAGYEVSWAAPPASGSSGGMFWAFSAAFTLNLFGGADEKEETPEEKLIKTIKRSILCIQREQYDKAEQMLHLALRMAQDIQSKDGITYVFDLMANLAMEREQFKKAEKIFTDVMKRLFAEGHTEESPKILHISSKIAHMSQLQGDLEKSFQGFTWTLQQLAKLLEKMPDDKDILELYGLTKNWFGQLLMKQGKYLEAKNLFKEAFDTLINVYGAVNDASVTILNNISVAYVNLEKYAEARETLLEAMELTKELKDATQEGILQANLGLVYLREGLMSQAENACRLAWKLGKQHQNPDAVEQAEYCLNEIKTTLNGEKRQ” the protein production was “failed”.
For “MLVVAVVFPVLAFIFLGGVVFYTRKQNKPKNKRAASVEVDENNEDGVKVNNSELKKLTKIKKIKGSKIYLKNGAIRVNLGISSPDFELLTDEEQTSFEDCLMMSALSLNFPVQFHTTLKKIEIKEPAELVEKTMNSSDSLISDNLRDYCSQLYSSYKKLEHEKGIFVRKSFCTVGAYLPDRDEKKVLNELQSRIDNIAGGLSRARMKINLLNSESTAQILADLFNRGKNIKIETLEKDGAFDLYSEGVGQVVEVQEG”, the protein production was “failed”.
With “MLYFEDLRPGQLFLSAEHTLSEQEIIAFARQFDPQPFHTDPEAARQTFFNGLAASGWHTSSLSMRLVAESELGRAANGLIGMQIDKMRWPQPSRPGDTLQVEVEVLDKRRSSSQPGFGVVKVSWTTRNQRGETAMQLECAIWLQCRSKAEAAAPELAGAK” the protein production was “failed”.
With “MLYHLVMLEPEGEGAMDRIMEAMAILDGLAPELPGLTEFRHGPNRDFEQKSERYPYGFLCTFTDKAALDAYAVHPTHQRAGGMLVASCRNGADGILVVDLEV” the protein production was “not failed”.
In the case of “MLYLFPLLAVVIWAGNAIVNKLSFGIIAPEAIAFYRWFFAMLILTPFMLKSVWKNRRRIIPLLPKLATLASLGMVLNQSLAYFAAATTTATNMALINSLVPMISLFLAVPLLKQRLSPLVLGGSVISLLGLVFMLSHGDIANLAIGVTEGDLLLLISAFVYALYGVLLKRWQLPISTWESVYIQGIIAVLMLTPLLFSAPSIAISSQATPLIVYAAFGASLIAPWAWINGINKLGAERTSIFFNLMPILAAIFAAIILNETLAIYHYLGGTMVILGVMLVQIKPKPKTTTIITCAE”, the protein production is reported as “failed”.
In the case of “MLYNSYMLLTYQFKLNPTSEQVVILETWGELLRRHWNYALGERLDWLRRTRSLLDRCSLVSEPIGGIPDKPDYYTQASDLQQTKDLFPDYKNIYADCQQQNLMRLDKAWKRWLIPDKKGNRGGKPRFKKRGDISSFTFPRVNSPKAGAHLTGNILKLSKIGEIEVILHRPIPNGSEIKQATILSKSDGWYVSFSLEDKTVPELLPIDEIKTATGIDVGLEKFLTTAHGQSIEVPQYSRKTQSKLARQQRKLARKIHGSKNYQKQASRVARIHLHVARQRKEFHYQVAHWLVKSYDLIVFENLNIRGLARTRLAKSILDVAWGAFLQIMQAVAVRRGKHTRGVDPRGTSINCSGCGQRVEKTLAVRVHNCSCGLVIDRDWNSAINLLNYGSVGLPIPGCGGLGVSQPVKQQVSYVNLRCSRYTACS”, the protein production is reported as “failed”.
In the case of “MLYPNERKSSVHAIPYQDQLKQVQSAVDEFQKANGGLLPIQTKDMSTPLYQKYPIDFNRLAPRYIAEPPSTAFESGGDYQYVLVDVENDPTVKLIDLKMAEKIRDVKLRIQMYRQEHQYPPYKDVLSRDLFTLDEKKLGDGSSLTVTSPISGNSLPLMIDGDGEIYADYRTELASCLKKSKKTFKPGTEIQDMIWHETPFVPAFSVKYTVNDKQEPVFLENDMKKELEHHHHHH”, the protein production is reported as “not failed”.
In the case of “MLYVVGIGPGNEEYFTKEAENALNSVDLIVCYTGYKKYIERFDTEIYVSGMTKEVERVEYALKEAENKNVALVSNGDATIYGLASLAYELNEKNLHNVTINVVSGL”, the protein production is reported as “failed”.
In the case of “MMAPNQFSSGDVIADRRADYARMLAESGDYPAAAELMEQALELAPRWTAGWFRFGEYHEKAGETAKAVAAYEKVAELDAEGLFAAELKLAVLGAAETPEQPPSRYVEGLFDDYADRFETSLVEKLDYSVPQKLAELIGKAATGDAFDTIVDIGCGTGLLGIEIRSLAKRLEGFDISQNMLAKADEKSLYDHLGQADLSLDAEASGLFTPVLTQHRADLVAAADVMMYLGSLETVMPLVSALLKPSGFFAFSVEDAGDEQGFVLRESLRYAHSKSYVIDLLERSGFSPMEIRKTTIRKDAGKPLSGILFLARAKA”, the protein production is reported as “failed”.
In the case of “MMARVEKLRELMKENNLQGFLVTSPYNLRYLTNFTGTTGLAMITLDKAFFVTDFRYTEQAAEQATGFTIVKNTGHIFDEVADLAERLQLDNLAFEETQVSFADYSLLEEILPCELVPVMGLIEELR”, the protein production is reported as “not failed”.
With “MMDCDHLLRLGMTAKKILENGKGILAADETPKTLGRRFEKLGITNTEENRRKFREILFSTKGIERYIGGVILNQETFEQTSGSGVPLTELLKKKGIEIGIKLDKGLIDYKEKEKISVGLEDLDLRCKSSAFKDATFAKWRSLFYFYDGIPSEDCINENCSILAKYAIICQKNGLVPIVEPEVFLEGDYSMKRSYEVTRQILSTLMKYLNYELVYIPGVLIKASYVTSGQLSNEKYTPKKVATFTLRALLSTIPCGIPGIVFLSGGHGSEDAIGFLNAINMERGCRTWSLSFSFARALTDGVLETWRGDDSNIEEAQKILLETSFKACRGAEGKLWDQE” the protein production was “not failed”.
With “MMDIVEIIIGFIALLMTARIFLERSRARKLLYLCCLSFCISALIALYVDSPMGGIVAITYFICSTISSNAIAYTIEQTKHIE” the protein production was “failed”.
With “MMDYLITQNGGMVFAVLAMATATIFSGIGSAKGVGMTGEAAAALTTSQPEKFGQALILQLLPGTQGLYGFVIAFLIFINLGSDMSVVQGLNFLGASLPIAFTGLFSGIAQGKVAAAGIQILAKKPEHATKGIIFAAMVETYAILGFVISFLLVLNA” the protein production was “not failed”.
With “MMFLHGSRQAVIAALVGLVITVTAFSYLRYQENQVVHDALEAETYNLQRDIRQSLVSHLFVAELLAREWERSDLSIEERWKENADIVTLYYQNVQGITWLNDELDIELIYPQNEQPELLGTPFAKTPLLEKLKASEGNRHAMMGPAGNLGRISSDIAIFVRVEQQDQTHGFLGFVISLQSLFNNVVRSNISEGFQLSVRSDNDILYQFAGDTSLREEWSHFHSLQLVGNSWELSVWPTAGHLEQLRGGISLAALIAGLLVTSMLTFVLYILGQSRFKAQQLADSNIELYSEIDERERIEKQMAYLAEHDSLTGLVNRNALKRILGEWLETESPHKKAALLFIDLDRFKEVNDALGHTVGDELLRRVARRITKLAPKGSVLARAGGDEFLLAIAKPDSRESIIKLSEQMLQALDTHFFVDVYELFISASIGVTFADDADFNAEYFIRNADTALYQAKEHGRNTYKVYDKAIHRDLTKKLELVKRLRHAVSKQQLTVYYQPKVELGSRRISGLEALVRWVDDDGSIIPPDEFIPLAEDTGLIIPISEYVMEEAFLQLKQWHELGFDELSIAINISGKQLHLADLVDDIMERVNEAQIPPNKVELELTEQVFIENIQSHTRFMHSVREQGMSLAIDDFGVGYSSLSYLKNFPVTSLKIDRSFVRDLPHNEDDATITQTIISLARNLNLQLVAEGIETEEQVEFLLQRECSTGQGFLFSKPVPARQITELLQQYKGLIPIQIA” the protein production was “failed”.
